Consider 1 protein from US8053186.

Data set [1] addresses All1/Af9 fusion protein (endogenous, PER377 cells with t(9;11)), Q03164.
For data set [2], the target named is All1/Af4 fusion protein (endogenous, SEMK2 cells with t(4;11)), Q03164.
All1/Af4 fusion protein (endogenous, SEMK2 cells with t(4;11)), Q03164, sequence (Q03164 other isoform, or with tags, fused parts or gaps): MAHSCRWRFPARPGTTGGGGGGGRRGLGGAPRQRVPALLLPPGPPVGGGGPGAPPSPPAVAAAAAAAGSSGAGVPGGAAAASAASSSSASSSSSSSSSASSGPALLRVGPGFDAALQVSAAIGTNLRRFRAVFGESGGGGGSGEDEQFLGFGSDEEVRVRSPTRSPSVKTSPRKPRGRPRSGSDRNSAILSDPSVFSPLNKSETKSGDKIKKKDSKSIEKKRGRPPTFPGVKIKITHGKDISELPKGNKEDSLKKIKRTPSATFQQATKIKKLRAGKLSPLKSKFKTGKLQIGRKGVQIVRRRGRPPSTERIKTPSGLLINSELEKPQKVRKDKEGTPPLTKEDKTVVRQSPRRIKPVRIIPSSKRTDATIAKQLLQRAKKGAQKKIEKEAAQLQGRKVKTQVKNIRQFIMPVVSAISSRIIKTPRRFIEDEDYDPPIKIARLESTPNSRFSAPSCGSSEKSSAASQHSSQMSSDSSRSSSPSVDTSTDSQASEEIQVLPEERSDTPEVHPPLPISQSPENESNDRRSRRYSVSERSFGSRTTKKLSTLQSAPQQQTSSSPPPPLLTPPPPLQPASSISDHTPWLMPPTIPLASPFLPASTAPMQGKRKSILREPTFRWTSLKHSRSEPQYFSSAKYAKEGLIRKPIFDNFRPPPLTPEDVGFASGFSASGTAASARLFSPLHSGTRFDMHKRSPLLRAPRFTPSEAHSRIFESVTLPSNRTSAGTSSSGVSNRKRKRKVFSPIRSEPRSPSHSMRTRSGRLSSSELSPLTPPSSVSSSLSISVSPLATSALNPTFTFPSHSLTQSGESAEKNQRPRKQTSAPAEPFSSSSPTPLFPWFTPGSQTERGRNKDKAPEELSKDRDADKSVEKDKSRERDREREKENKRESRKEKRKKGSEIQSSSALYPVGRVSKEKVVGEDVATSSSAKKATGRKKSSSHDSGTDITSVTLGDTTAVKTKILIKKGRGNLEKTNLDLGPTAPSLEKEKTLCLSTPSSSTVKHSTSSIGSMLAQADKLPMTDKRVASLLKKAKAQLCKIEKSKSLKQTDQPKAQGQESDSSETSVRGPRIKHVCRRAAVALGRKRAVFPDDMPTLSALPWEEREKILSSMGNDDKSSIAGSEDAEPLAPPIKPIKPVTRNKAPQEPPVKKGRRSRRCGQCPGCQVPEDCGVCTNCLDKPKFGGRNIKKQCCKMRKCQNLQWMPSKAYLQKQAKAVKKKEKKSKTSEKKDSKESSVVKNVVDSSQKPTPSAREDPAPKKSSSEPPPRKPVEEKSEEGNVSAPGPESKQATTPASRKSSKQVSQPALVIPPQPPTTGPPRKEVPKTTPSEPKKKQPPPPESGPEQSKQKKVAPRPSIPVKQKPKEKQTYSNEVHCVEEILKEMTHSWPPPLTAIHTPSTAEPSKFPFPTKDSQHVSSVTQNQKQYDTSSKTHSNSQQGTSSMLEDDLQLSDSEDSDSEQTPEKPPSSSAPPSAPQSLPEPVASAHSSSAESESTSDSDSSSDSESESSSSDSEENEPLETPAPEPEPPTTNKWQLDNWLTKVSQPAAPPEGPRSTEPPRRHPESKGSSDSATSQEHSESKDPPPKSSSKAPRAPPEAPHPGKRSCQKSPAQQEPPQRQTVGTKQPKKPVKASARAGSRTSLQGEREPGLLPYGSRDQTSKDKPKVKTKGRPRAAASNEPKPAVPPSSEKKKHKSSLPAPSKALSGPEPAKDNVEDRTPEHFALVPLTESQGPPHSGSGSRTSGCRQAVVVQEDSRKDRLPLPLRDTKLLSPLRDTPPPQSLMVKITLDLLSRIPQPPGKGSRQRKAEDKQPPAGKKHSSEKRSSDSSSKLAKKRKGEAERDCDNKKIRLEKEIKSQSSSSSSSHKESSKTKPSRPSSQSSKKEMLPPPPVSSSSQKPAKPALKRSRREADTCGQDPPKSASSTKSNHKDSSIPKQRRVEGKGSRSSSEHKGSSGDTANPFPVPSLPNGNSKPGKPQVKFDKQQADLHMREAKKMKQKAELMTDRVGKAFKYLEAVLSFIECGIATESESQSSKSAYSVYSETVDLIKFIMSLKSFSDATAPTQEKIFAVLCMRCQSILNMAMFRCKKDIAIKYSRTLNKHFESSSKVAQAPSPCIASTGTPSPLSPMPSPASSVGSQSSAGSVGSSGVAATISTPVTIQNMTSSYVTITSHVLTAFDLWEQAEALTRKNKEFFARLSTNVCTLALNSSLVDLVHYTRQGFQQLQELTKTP

All1/Af9 fusion protein (endogenous, PER377 cells with t(9;11)), Q03164, sequence (Q03164 other isoform, or with tags, fused parts or gaps): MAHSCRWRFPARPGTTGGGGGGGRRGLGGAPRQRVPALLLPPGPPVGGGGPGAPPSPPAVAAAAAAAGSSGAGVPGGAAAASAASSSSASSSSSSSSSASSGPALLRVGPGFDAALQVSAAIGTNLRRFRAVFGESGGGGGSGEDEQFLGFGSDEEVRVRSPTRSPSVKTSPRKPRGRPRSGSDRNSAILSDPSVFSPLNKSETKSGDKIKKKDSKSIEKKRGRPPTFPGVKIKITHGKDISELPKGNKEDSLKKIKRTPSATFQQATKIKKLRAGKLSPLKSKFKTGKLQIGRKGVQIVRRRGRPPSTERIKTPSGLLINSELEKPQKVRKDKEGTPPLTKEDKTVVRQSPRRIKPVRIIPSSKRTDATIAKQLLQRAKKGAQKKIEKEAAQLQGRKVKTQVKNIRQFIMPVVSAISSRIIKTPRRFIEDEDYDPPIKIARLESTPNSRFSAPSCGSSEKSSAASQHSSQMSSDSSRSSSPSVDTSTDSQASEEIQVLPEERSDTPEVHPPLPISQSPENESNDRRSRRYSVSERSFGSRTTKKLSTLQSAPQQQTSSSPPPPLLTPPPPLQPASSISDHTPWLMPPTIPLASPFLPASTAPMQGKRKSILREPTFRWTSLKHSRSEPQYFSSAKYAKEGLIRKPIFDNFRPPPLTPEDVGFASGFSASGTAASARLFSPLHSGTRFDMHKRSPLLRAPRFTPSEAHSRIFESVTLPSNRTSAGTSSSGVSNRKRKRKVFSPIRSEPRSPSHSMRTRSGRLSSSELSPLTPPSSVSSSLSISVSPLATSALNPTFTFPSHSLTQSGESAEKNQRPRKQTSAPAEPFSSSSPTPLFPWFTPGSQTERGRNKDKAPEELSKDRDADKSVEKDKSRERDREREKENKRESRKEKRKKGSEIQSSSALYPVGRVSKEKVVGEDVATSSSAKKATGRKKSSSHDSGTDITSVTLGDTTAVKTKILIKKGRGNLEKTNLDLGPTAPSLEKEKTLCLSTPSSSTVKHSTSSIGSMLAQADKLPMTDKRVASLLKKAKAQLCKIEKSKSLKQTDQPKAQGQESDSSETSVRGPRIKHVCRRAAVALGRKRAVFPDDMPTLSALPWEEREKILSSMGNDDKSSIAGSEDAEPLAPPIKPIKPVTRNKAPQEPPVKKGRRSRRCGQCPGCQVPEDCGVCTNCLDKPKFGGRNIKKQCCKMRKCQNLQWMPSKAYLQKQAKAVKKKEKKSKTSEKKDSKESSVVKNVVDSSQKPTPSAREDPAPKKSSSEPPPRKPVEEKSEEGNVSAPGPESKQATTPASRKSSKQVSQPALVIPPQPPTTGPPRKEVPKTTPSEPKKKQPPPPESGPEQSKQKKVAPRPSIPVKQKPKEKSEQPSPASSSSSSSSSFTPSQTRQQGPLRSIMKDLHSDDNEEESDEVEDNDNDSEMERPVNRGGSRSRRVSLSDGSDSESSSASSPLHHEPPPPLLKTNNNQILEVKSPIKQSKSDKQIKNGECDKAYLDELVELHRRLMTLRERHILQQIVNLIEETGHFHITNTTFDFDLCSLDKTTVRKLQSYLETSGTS

B1: Drosha (endogenous, immunoprecipitated from SEMK2 or PER377 nuclear extracts) (protein)
chain: MMQGNTCHRMSFHPGRGCPRGRGGHGARPSAPSFRPQNLRLLHPQQPPVQYQYEPPSAPSTTFSNSPAPNFLPPRPDFVPFPPPMPPSAQGPLPPCPIRPPFPNHQMRHPFPVPPCFPPMPPPMPCPNNPPVPGAPPGQGTFPFMMPPPSMPHPPPPPVMPQQVNYQYPPGYSHHNFPPPSFNSFQNNPSSFLPSANNSSSPHFRHLPPYPLPKAPSERRSPERLKHYDDHRHRDHSHGRGERHRSLDRRERGRSPDRRRQDSRYRSDYDRGRTPSRHRSYERSRERERERHRHRDNRRSPSLERSYKKEYKRSGRSYGLSVVPEPAGCTPELPGEIIKNTDSWAPPLEIVNHRSPSREKKRARWEEEKDRWSDNQSSGKDKNYTSIKEKEPEETMPDKNEEEEEELLKPVWIRCTHSENYYSSDPMDQVGDSTVVGTSRLRDLYDKFEEELGSRQEKAKAARPPWEPPKTKLDEDLESSSESECESDEDSTCSSSSDSEVFDVIAEIKRKKAHPDRLHDELWYNDPGQMNDGPLCKCSAKARRTGIRHSIYPGEEAIKPCRPMTNNAGRLFHYRITVSPPTNFLTDRPTVIEYDDHEYIFEGFSMFAHAPLTNIPLCKVIRFNIDYTIHFIEEMMPENFCVKGLELFSLFLFRDILELYDWNLKGPLFEDSPPCCPRFHFMPRFVRFLPDGGKEVLSMHQILLYLLRCSKALVPEEEIANMLQWEELEWQKYAEECKGMIVTNPGTKPSSVRIDQLDREQFNPDVITFPIIVHFGIRPAQLSYAGDPQYQKLWKSYVKLRHLLANSPKVKQTDKQKLAQREEALQKIRQKNTMRREVTVELSSQGFWKTGIRSDVCQHAMMLPVLTHHIRYHQCLMHLDKLIGYTFQDRCLLQLAMTHPSHHLNFGMNPDHARNSLSNCGIRQPKYGDRKVHHMHMRKKGINTLINIMSRLGQDDPTPSRINHNERLEFLGDAVVEFLTSVHLYYLFPSLEEGGLATYRTAIVQNQHLAMLAKKLELDRFMLYAHGPDLCRESDLRHAMANCFEALIGAVYLEGSLEEAKQLFGRLLFNDPDLREVWLNYPLHPLQLQEPNTDRQLIETSPVLQKLTEFEEAIGVIFTHVRLLARAFTLRTVGFNHLTLGHNQRMEFLGDSIMQLVATEYLFIHFPDHHEGHLTLLRSSLVNNRTQAKVAEELGMQEYAITNDKTKRPVALRTKTLADLLESFIAALYIDKDLEYVHTFMNVCFFPRLKEFILNQDWNDPKSQLQQCCLTLRTEGKEPDIPLYKTLQTVGPSHARTYTVAVYFKGERIGCGKGPSIQQAEMGAAMDALEKYNFPQMAHQKRFIERKYRQELKEMRWEREHQEREPDETEDIKK
In the case of B1, the “in vitro cleavage of miR-191 and miR-155 probes by immuno-purified Drosha” value in data set [1] is reported as “Drosha containing All1/Af9 had less processing activity, similar to that of the Drosha:FLAG preparation”; in data set [2] it was “Drosha containing All1/Af4 exhibited the strongest processing activity”.
